# US7026456
# B1: monoclonal antibody 20E11, produced by hybridoma HIL-12F3-20E11 (ATCC HB-12448) (antibody, part only; not given: light chain and constant regions, V domains shown, part only)
# VH: EESGPSLVKPSQTLSLTCSVTGDSITSGYWNWIRKFPDNTLEYMGYISYSGSTYYNPSLRSRISITRDTSKNQYSMQLNSVTTEDTATYYCARSSDAMDYWG
# B2: monoclonal antibody 16G2, produced by hybridoma HIL-12F3-16G2 (ATCC HB-12449) (antibody, part only; not given: light chain and constant regions, V domains shown, part only)
# VH: LEESGPSLVKPSQTLSLTCSVTGDSITSGYWNWIRKFPGNKFEYMGFISYSGSTYNNPSLKNRVSITRDTSNNQYYLQLSSVTTEDSATYYCARSSDALDYWGAGTT
# Molecular target: natural human IL-12 (p75 heterodimer), purified from stimulated human blood cultures (human) (UniProt P29459)
# Test: cell-based or functional assay
# Chain of UniProt P29459 (P29459 23-219, chain 1 of 2): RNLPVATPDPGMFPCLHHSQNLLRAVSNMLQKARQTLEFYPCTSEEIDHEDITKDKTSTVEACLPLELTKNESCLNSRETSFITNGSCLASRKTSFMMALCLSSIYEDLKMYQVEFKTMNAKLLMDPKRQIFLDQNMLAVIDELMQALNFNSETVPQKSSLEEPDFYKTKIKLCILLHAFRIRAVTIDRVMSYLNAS
# Chain of UniProt P29459 (P29460 23-328, chain 2 of 2, further chain): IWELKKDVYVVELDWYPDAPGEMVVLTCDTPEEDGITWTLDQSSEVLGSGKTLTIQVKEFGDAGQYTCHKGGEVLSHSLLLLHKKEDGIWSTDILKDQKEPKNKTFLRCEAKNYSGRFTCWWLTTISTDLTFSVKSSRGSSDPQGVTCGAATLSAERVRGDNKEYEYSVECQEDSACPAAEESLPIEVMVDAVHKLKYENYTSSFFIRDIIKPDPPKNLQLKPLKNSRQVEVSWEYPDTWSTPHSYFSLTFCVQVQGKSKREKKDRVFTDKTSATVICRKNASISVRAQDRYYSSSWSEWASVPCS
Binder,IC50 of 0.25 ng/ml IL-12-stimulated proliferation of PHA-activated human lymphoblasts [µg/mL],IC50 of 0.25 ng/ml human IL-12-stimulated IFN-γ production by PHA-activated human lymphoblasts [µg/mL],inhibition of IL-12-stimulated IFN-γ production at 0.5 µg/ml antibody [%],inhibition of human IL-12 stimulated PHA activated lymphoblast proliferation [%]
B1,0.01,0.02,> 90,> 90
B2,0.01,0.01,> 90,> 90
